# Test results reported in patent US20250152742A1, “COMPOSITIONS AND METHODS FOR NEUROLOGICAL DISEASES” (Trames Bio, Inc., priority 2022, published 2025).
# B1: CODA1138: engineered receptor: W77F, R101F, L131D in SEQ ID NO: 33 (protein)
# chain: MRCSPGGVWLALAASLLHVSLQGEFQRKLYKELVKNYNPLERPVANDSQPLTVYFSLSLLQIMDVDEKNQVLTTNIFLQMSWTDHYLQWNVSEYPGVKTVFFPDGQIWKPDILLYNSADERFDATFHTNVDVNSSGHCQYLPPGIFKSSCPMDLKNFPMDVQTCKLKFGSWSYGGWSLDLQMQEADISGYIPNGEWDLVGIPGKRSERFYECCKEPYPDVTFTVTMRRRMGYYLIQMYIPSLLIVILSWISFWINMDAAPARVGLGITTVLTMTTQSSGSRASLPKVSYVKAIDIWMAVCLLFVFSALLEYAAVNFVSRQHKELLRFRRKRRHHKSPMLNLFQEDEAGEGRFNFSAYGMGPACLQAKDGISVKGANNSNTTNPPPAPSKSPEEMRKLFIQRAKKIDKISRIGFPMAFLIFNMFYWIIYKIVRREDVHNQ
# modifications: synthetic sequence of chimeric LGIC
# B2: CODA1173: engineered receptor: S172D, Y210W in SEQ ID NO: 33 (protein)
# chain: MRCSPGGVWLALAASLLHVSLQGEFQRKLYKELVKNYNPLERPVANDSQPLTVYFSLSLLQIMDVDEKNQVLTTNIWLQMSWTDHYLQWNVSEYPGVKTVRFPDGQIWKPDILLYNSADERFDATFHTNVLVNSSGHCQYLPPGIFKSSCPMDLKNFPMDVQTCKLKFGSWDYGGWSLDLQMQEADISGYIPNGEWDLVGIPGKRSERFWECCKEPYPDVTFTVTMRRRMGYYLIQMYIPSLLIVILSWISFWINMDAAPARVGLGITTVLTMTTQSSGSRASLPKVSYVKAIDIWMAVCLLFVFSALLEYAAVNFVSRQHKELLRFRRKRRHHKSPMLNLFQEDEAGEGRFNFSAYGMGPACLQAKDGISVKGANNSNTTNPPPAPSKSPEEMRKLFIQRAKKIDKISRIGFPMAFLIFNMFYWIIYKIVRREDVHNQ
# modifications: synthetic sequence of chimeric LGIC
# B3: CODA1157: engineered receptor: Q139E, S172D in SEQ ID NO: 33 (protein)
# chain: MRCSPGGVWLALAASLLHVSLQGEFQRKLYKELVKNYNPLERPVANDSQPLTVYFSLSLLQIMDVDEKNQVLTTNIWLQMSWTDHYLQWNVSEYPGVKTVRFPDGQIWKPDILLYNSADERFDATFHTNVLVNSSGHCEYLPPGIFKSSCPMDLKNFPMDVQTCKLKFGSWDYGGWSLDLQMQEADISGYIPNGEWDLVGIPGKRSERFYECCKEPYPDVTFTVTMRRRMGYYLIQMYIPSLLIVILSWISFWINMDAAPARVGLGITTVLTMTTQSSGSRASLPKVSYVKAIDIWMAVCLLFVFSALLEYAAVNFVSRQHKELLRFRRKRRHHKSPMLNLFQEDEAGEGRFNFSAYGMGPACLQAKDGISVKGANNSNTTNPPPAPSKSPEEMRKLFIQRAKKIDKISRIGFPMAFLIFNMFYWIIYKIVRREDVHNQ
# modifications: synthetic sequence of chimeric LGIC
# Tested on: engineered chimeric receptor SEQ ID NO: 33 and its mutants (human α7-nAChR ligand binding domain / human GlyRα1 ion pore domain) in Lenti-X 293T cells
# Test: YFP fluorescence quenching anion reporter plate reader assay (percent quench, EC50)
# Format: cell-based
# Settings: for YFP fluorescence quenching using CNL001 (percent quench): receptor named in row; for YFP fluorescence quenching using Varenicline, 3 nM var: ligand Varenicline 3 nM; for YFP fluorescence quenching using Varenicline, 30 nM var: ligand Varenicline 30 nM; for YFP fluorescence quenching using Varenicline, 300 nM var: ligand Varenicline 300 nM; for YFP fluorescence quenching using Varenicline, 500 nM var: ligand Varenicline 500 nM; for YFP fluorescence quenching using Varenicline, 1 uM var: ligand Varenicline 1 uM
# Outline: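 Percent quench compares mean YFP signal over the final 10 s with the 15 s baseline before ligand, added in iodide-containing extracellular solution (pH 7.2). Cells were LX293T carrying a YFP anion reporter, transiently transfected with the channel construct; plates were preincubated 30 min at 37 °C.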
# [1] = 1 nM CNL001, first column so headed
# [2] = 1 nM CNL001, second column so headed
# [3] = 10 nM CNL001, first column so headed
# [4] = 10 nM CNL001, second column so headed
# [5] = 50 nM CNL001, first column so headed
# [6] = 50 nM CNL001, second column so headed
# [7] = 100 nM CNL001, first column so headed
# [8] = 100 nM CNL001, second column so headed
# [9] = 1 uM CNL001, first column so headed
# [10] = 1 uM CNL001, second column so headed
Molecule,YFP fluorescence quenching using CNL001 (percent quench) [1],YFP fluorescence quenching using CNL001 (percent quench) [2],YFP fluorescence quenching using CNL001 (percent quench) [3],YFP fluorescence quenching using CNL001 (percent quench) [4],YFP fluorescence quenching using CNL001 (percent quench) [5],YFP fluorescence quenching using CNL001 (percent quench) [6],YFP fluorescence quenching using ABT-126 (percent quench) (50 nM abt (ABT-126)),YFP fluorescence quenching using CNL001 (percent quench) [7],YFP fluorescence quenching using CNL001 (percent quench) [8],YFP fluorescence quenching (percent quench) (100 nM CNL002),YFP fluorescence quenching using ABT-126 (percent quench) (100 nM abt (ABT-126)),YFP fluorescence quenching using ABT-126 (percent quench) (300 nM abt (ABT-126)),YFP fluorescence quenching using CNL001 (percent quench) [9],YFP fluorescence quenching using CNL001 (percent quench) [10],YFP fluorescence quenching (percent quench) (1 uM CNL002),YFP fluorescence quenching using ABT-126 (percent quench) (1 uM abt (ABT-126)),YFP fluorescence quenching using ABT-126 (percent quench) (10 uM abt (ABT-126)),YFP fluorescence quenching (percent quench) (1 mM ach (acetylcholine)),YFP fluorescence quenching (percent quench) (3 mM ach (acetylcholine)),"YFP fluorescence quenching using Varenicline, 3 nM var (first column)",other results
B1,−6.175%,5.89%,−2.032%,7.601%,9.263%,4.423%,−11.71%,24%,30.448%,81.66%,−5.13%,15.09%,73.823%,73.271%,81.69%,56.63%,75.93%,37.5%,61.73%,3.893,"YFP fluorescence quenching (percent quench) (1 nM CNL002): −2.209%; YFP fluorescence quenching (percent quench) (10 nM CNL002): 43.044%; YFP fluorescence quenching (percent quench) (50 nM CNL002): 73.418%; YFP fluorescence quenching (percent quench) (10 uM ach (acetylcholine)): −12.92%; YFP fluorescence quenching (percent quench) (30 uM ach (acetylcholine)): −15.36%; YFP fluorescence quenching (percent quench) (100 uM ach (acetylcholine)): −19.35%; YFP fluorescence quenching (percent quench) (300 uM ach (acetylcholine)): −14.79%; YFP fluorescence quenching using Varenicline, 3 nM var (second column): 1.107; YFP fluorescence quenching using Varenicline, 30 nM var (first column): 0.972; YFP fluorescence quenching using Varenicline, 30 nM var (second column): 0.872; YFP fluorescence quenching using Varenicline, 300 nM var (first column): 2.282; YFP fluorescence quenching using Varenicline, 300 nM var (second column): −0.288; YFP fluorescence quenching using Varenicline, 500 nM var (first column): 3.637; YFP fluorescence quenching using Varenicline, 500 nM var (second column): −1.804; YFP fluorescence quenching using Varenicline, 1 uM var (first column): −1.84; YFP fluorescence quenching using Varenicline, 1 uM var (second column): 6.36"
B2,16.321%,30.264%,61.978%,65.343%,73.006%,74.903%,5.15%,76%,76.759%,70.15%,25.08%,66.86%,76.928%,76.619%,77.33%,66.94%,78.67%,−6.12%,11.31%,9.211,"YFP fluorescence quenching using Varenicline, 3 nM var (second column): 7.193; YFP fluorescence quenching using Varenicline, 30 nM var (first column): 7.821; YFP fluorescence quenching using Varenicline, 30 nM var (second column): 9.078; YFP fluorescence quenching using Varenicline, 300 nM var (first column): 6.933; YFP fluorescence quenching using Varenicline, 300 nM var (second column): 8.36; YFP fluorescence quenching using Varenicline, 500 nM var (first column): 5.501; YFP fluorescence quenching using Varenicline, 500 nM var (second column): 7.04; YFP fluorescence quenching using Varenicline, 1 uM var (first column): 7.174; YFP fluorescence quenching using Varenicline, 1 uM var (second column): 5.185"
B3,68.362%,69.495%,75.078%,74.193%,77.481%,77.205%,−26.77%,77%,77.042%,80.62%,−24.64%,−10.64%,78.2%,76.244%,81.32%,19.57%,55.64%,16.38%,45.71%,−0.225,"YFP fluorescence quenching (percent quench) (10 uM ach (acetylcholine)): −36.89%; YFP fluorescence quenching (percent quench) (30 uM ach (acetylcholine)): −37.78%; YFP fluorescence quenching (percent quench) (100 uM ach (acetylcholine)): −25.67%; YFP fluorescence quenching (percent quench) (300 uM ach (acetylcholine)): −18.94%; YFP fluorescence quenching using Varenicline, 3 nM var (second column): −1.954; YFP fluorescence quenching using Varenicline, 30 nM var (first column): 1.269; YFP fluorescence quenching using Varenicline, 30 nM var (second column): 5.972; YFP fluorescence quenching using Varenicline, 300 nM var (first column): 6.84; YFP fluorescence quenching using Varenicline, 300 nM var (second column): 5.943; YFP fluorescence quenching using Varenicline, 500 nM var (first column): 8.717; YFP fluorescence quenching using Varenicline, 500 nM var (second column): 6.41; YFP fluorescence quenching using Varenicline, 1 uM var (first column): 5.635; YFP fluorescence quenching using Varenicline, 1 uM var (second column): 7.068"
